Values of other authors, collected in patent US7776891B2, “VLA-4 antagonists” (Merck Sharp & Dohme Corp., priority 2004, dated 2010).

Molecular target: T1, VLA-4 (Homo sapiens, UniProt P13612)
T1 construct: host or cells: circulating VLA-4-bearing leukocytes of trial subjects (endogenous)
Settings: early clinical trials

## natalizumab: humanized monoclonal antibody against α4 (Antegren®, Elan/Biogen)
  lymphocytosis (a surrogate marker for blockade of VLA-4 function): observed
  receptor occupancy: > 80%
